Assay results from patent publication US20210380703A1.
Substitutions are numbered along the chain they refer to.

B1: 376_H11 (antibody, V domains shown)
VH: EVQLLESGGGLVQPGGSLRLSCAASGFTFDSYSMNWVRQAPGKGLEWVSNINYNGGYTGYADSVKGRFTISRDNSKNTLYLQMNSLRAEDTAVYYCARGANWHDTALDYWGQGTLVTVSS
VL: DIQMTQSPSSLSASVGDRVTITCRASQSISRYLNWYQQKPGKAPKLLIYAVTSLASGVPSRFSGSGSGTDFTLTISSLQPEDFATYYCQQSYESPLTFGGGTKVEIK
B2: 368_F06 (antibody, V domains shown)
VH: B1 VH with S31D, N35H, S49A, G55S, N101T, A106H
VL: B1 VL with S30L, R31S, L47V, V51T, L54R, S94N
B3: 368_G10 (antibody, V domains shown)
VH: B1 VH with D30S, N35H, N50S, G59S, N101T, A106H
VL: B1 VL with S30V, R31S, L33V, L47V, V51A, L54R, E93D, S94T
B4: 369_H08 (antibody, V domains shown)
VH: B1 VH with D30S, S49A, N50G, G55S, T58K, G59S, N101T, A106H
VL: B1 VL with S30L, R31S, L33V, L47V, V51A
B5: 370_H04 (antibody, V domains shown)
VH: B1 VH with D30S, N101T, A106H
VL: B1 VL with S30L, R31S, L33V, V51A, L54R, E93D, S94L
B6: 367_D05 (antibody, V domains shown)
VH: B1 VH with D30S, S31D, N50S, T58K, G59S, N101T, A106H
VL: B1 VL with S30I, R31S, L33V, L47V, V51A, E93D
B7: 365_C02 (antibody, V domains shown)
VH: B1 VH with T58K, N101T, A106H
VL: B1 VL with R31T, L47V, V51A, L54R, A55H, S94N
B8: 370_E04 (antibody, V domains shown)
VH: B1 VH with D30S, S49A, T58K, N101T, A106H
VL: B1 VL with S30L, R31T, A55H, S94T
B9: 368_D12 (antibody, V domains shown)
VH: B1 VH with D30S, S33G, N50S, G59S, N101T, A106H
VL: B1 VL with S30L, R31S, L33V, L47V, V51A, L54R, E93N, S94N
B10: 370_F12 (antibody, V domains shown)
VH: B1 VH with D30S, S31D, S49A, N101T, A106H
VL: B1 VL with S30L, R31S, V51A, T52S, A55Q, E93D
B11: 370_G08 (antibody, V domains shown)
VH: B1 VH with D30S, S31D, S49A, N50G, N101T, A106H
VL: B1 VL with S30L, R31T, L47V, V51A, L54R
B12: 370_H06 (antibody, V domains shown)
VH: B1 VH with S31D, S49A, N101T, A106H
VL: B1 VL with S30L, R31T, V51A, L54R, S94T
B13: 369_F09 (antibody, V domains shown)
VH: B1 VH with D30S, S33G, N35H, S49A, N50G, G59S, N101T, A106H
VL: B1 VL with S30L, R31T, L33V, V51A, L54R, E93D
B14: 369_A11 (antibody, V domains shown)
VH: B1 VH with S33G, S49A, T58K, N101T, A106H
VL: B1 VL with S30I, R31T, L47V, V51A, L54R, A55H
B15: 367_F09 (antibody, V domains shown)
VH: B1 VH with N35H, S49A, N50G, G59S, N101T, A106H
VL: B1 VL with S30L, R31T, V51A, Y92D, E93S, S94N
B16: 366_G09 (antibody, V domains shown)
VH: B1 VH with S31D, S49A, N50S, G55S, N101T, A106H
VL: B1 VL with S30L, R31S, L33V, L47V, V51A, L54R, E93D, S94L
B17: 370_D03 (antibody, V domains shown)
VH: B1 VH with D30S, S49A, N50S, G59S, N101T, A106H
VL: B1 VL with S30I, R31T, V51A, L54R, E93D, S94L
B18: 367_C08 (antibody, V domains shown)
VH: B1 VH with N35H, S49A, N50G, G59S, N101T, A106H
VL: B1 VL with S30L, R31T, V51A, Y92D, E93S, S94N
B19: 366_D08 (antibody, V domains shown)
VH: B1 VH with D30S, S33G, N35H, T58K, G59S, N101T, A106H
VL: B1 VL with S30L, R31S, L33V, L47V, V51A, S94N
B20: 369_C12 (antibody, V domains shown)
VH: B1 VH with D30S, S33G, S49A, T58K, N101T, A106H
VL: B1 VL with S30L, R31T, V51A, L54R, A55H, E93D, S94T
B21: 368_H06 (antibody, V domains shown)
VH: B1 VH with S33G, N35H, S49A, T58K, G59S, N101T, A106H
VL: B1 VL with S30L, R31T, L33V, V51T, L54R, E93D, S94N
B22: 365_D02 (antibody, V domains shown)
VH: B1 VH with D30S, N35H, S49A, N50S, G59S, N101T, A106H
VL: B1 VL with S30V, R31T, V51A, E93D, S94N
B23: 369_E08 (antibody, V domains shown)
VH: B1 VH with D30S, S49A, N50S, G55S, N101T, A106H
VL: B1 VL with S30L, R31T, L33V, V51A, L54R, E93D
B24: 370_E05 (antibody, V domains shown)
VH: B1 VH with D30S, S33G, T58K, N101T, A106H
VL: B1 VL with R31T, L47V, L54R, E93N
B25: 367_D09 (antibody, V domains shown)
VH: B1 VH with S33G, S49A, N50S, T58K, G59S, N101T, A106H
VL: B1 VL with S30L, R31T, V51A, E93D, S94N
B26: 365_A08 (antibody, V domains shown)
VH: B1 VH with D30S, S49A, N50S, T58K, G59S, N101T, A106H
VL: B1 VL with S30I, R31T, L47V, V51A, L54R, Y92D, E93N, S94T
B27: 371_B01 (antibody, V domains shown)
VH: B1 VH with G55S, N101T, A106H
VL: B1 VL with S30L, R31S, L33V, V51A, E93D, S94L
B28: 370_C07 (antibody, V domains shown)
VH: B1 VH with D30S, S49A, T58K, G59S, N101T, A106H
VL: B1 VL with S30L, R31S, V51A, L54R, A55H
B29: 365_F05 (antibody, V domains shown)
VH: B1 VH with D30S, S33G, S49A, N50S, G59S, N101T, A106H
VL: B1 VL with S30V, R31T, L33V, V51A, L54R, S94T
B30: 369_H02 (antibody, V domains shown)
VH: B1 VH with S31D, T58K, G59S, N101T, A106H
VL: B1 VL with S30I, R31S, V51A, L54R, E93D
B31: 367_B06 (antibody, V domains shown)
VH: B1 VH with D30S, S49A, N101T, A106H
VL: B1 VL with S30I, R31S, L33V, L47V, V51A, A55H, E93N
B32: 369_E05 (antibody, V domains shown)
VH: B1 VH with D30S, S31D, S33G, S49A, T58K, G59S, N101T, A106H
VL: B1 VL with S30L, R31T, V51A, S94T
B33: 369_G05 (antibody, V domains shown)
VH: B1 VH with D30S, S49A, N50G, G59S, N101T, A106H
VL: B1 VL with S30V, R31S, V51A, L54R, A55H, E93D
B34: 367_E07 (antibody, V domains shown)
VH: B1 VH with D30S, S31D, N50S, T58K, N101T, A106H
VL: B1 VL with S30L, R31S, L33V, L47V, V51A, L54R, S94N
B35: 370_B08 (antibody, V domains shown)
VH: B1 VH with D30S, S31D, S49A, N101T, A106H
VL: B1 VL with S30L, R31S, V51A, T52S, A55Q, E93D
B36: 368_C11 (antibody, V domains shown)
VH: B1 VH with D30S, S31D, N50S, G55S, T58K, G59S, N101T, A106H
VL: B1 VL with S30I, R31S, V51A, L54R, E93D, S94N
B37: 365_C04 (antibody, V domains shown)
VH: B1 VH with S49A, T58K, N101T, A106H
VL: B1 VL with S30L, R31T, L47V, V51A, E93D, S94T
B38: 370_D09 (antibody, V domains shown)
VH: B1 VH with D30S, S31D, N50G, G55S, G59S, N101T, A106H
VL: B1 VL with S30V, R31T, L47V, V51A, L54R, E93D, S94T
B39: 365_D10 (antibody, V domains shown)
VH: B1 VH with D30S, S49A, N50G, N101T, A106H
VL: B1 VL with R31T, V51A, L54R
B40: 367_A02 (antibody, V domains shown)
VH: B1 VH with S33G, N50S, G55S, T58K, N101T, A106H
VL: B1 VL with S30I, R31S, L54R, E93D, S94T
B41: 370_F01 (antibody, V domains shown)
VH: B1 VH with D30S, S33G, G59S, N101T, A106H
VL: B1 VL with S30V, R31S, V51A, L54R, E93D
B42: 369_F05 (antibody, V domains shown)
VH: B1 VH with D30S, N50G, T58K, G59S, N101T, A106H
VL: B1 VL with R31S, V51A, T52S, A55Q, S91G, E93D
B43: 369_D08 (antibody, V domains shown)
VH: B1 VH with D30S, S31D, S49A, N50S, T58K, N101T, A106H
VL: B1 VL with S30L, R31T, V51A, L54R, E93D, S94T
B44: 368_G03 (antibody, V domains shown)
VH: B1 VH with D30S, N50G, G55S, G59S, N101T
VL: B1 VL with S30L, R31S, L47V, V51A, L54R, E93D, S94T
B45: 368_H11 (antibody, V domains shown)
VH: B1 VH with S33G, N35H, S49A, N50S, G59S, N101T, A106H
VL: B1 VL with S30L, R31S, V51A, L54R, Y92D, E93D, S94T
B46: 369_H12 (antibody, V domains shown)
VH: B1 VH with D30S, S49A, N50G, T58K, G59S, N101T, A106H
VL: B1 VL with S30V, R31T, L33V, L47V, V51A, L54R, E93D
B47: 370_F02 (antibody, V domains shown)
VH: B1 VH with S33G, S49A, N101T, A106H
VL: B1 VL with S30L, R31S, L54R, A55H, E93D
B48: 368_D02 (antibody, V domains shown)
VH: B1 VH with S31D, S33G, N101T, A106H
VL: B1 VL with R31T, L47V, V51A, L54R, A55H, E93D, S94T

Each binder was assayed against Human Fc (human) (assay: ELISA; negative control).
In the case of B1, the optical density is reported as 0.325 OD.
With B2 the optical density was 0.249 OD.
Work on B3 yielded an optical density of 0.356 OD.
Work on B4 yielded an optical density of 0.389 OD.
With B5 the optical density was 0.596 OD.
For B6, the optical density was 0.265 OD.
B7 was tested, and the optical density was 0.362 OD.
Work on B8 yielded an optical density of 0.292 OD.
In the case of B9, the optical density is reported as 0.329 OD.
In the case of B10, the optical density is reported as 0.457 OD.
In the case of B11, the optical density is reported as 0.364 OD.
In the case of B12, the optical density is reported as 0.358 OD.
For B13, the optical density was 0.5 OD.
For B14, the optical density was 0.366 OD.
B15 was tested, and the optical density was 0.289 OD.
In the case of B16, the optical density is reported as 0.291 OD.
With B17 the optical density was 0.57 OD.
Binder B18 has an optical density of 0.278 OD.
In the case of B19, the optical density is reported as 0.312 OD.
B20 was tested, and the optical density was 0.418 OD.
B21 showed an optical density of 0.311 OD.
Binder B22 has an optical density of 0.486 OD.
Binder B23 has an optical density of 0.272 OD.
Work on B24 yielded an optical density of 0.427 OD.
Binder B25 has an optical density of 0.381 OD.
Work on B26 yielded an optical density of 0.256 OD.
B27 was tested, and the optical density was 0.464 OD.
B28 was tested, and the optical density was 0.316 OD.
For B29, the optical density was 0.376 OD.
Work on B30 yielded an optical density of 0.408 OD.
In the case of B31, the optical density is reported as 0.378 OD.
B32 showed an optical density of 0.282 OD.
Binder B33 has an optical density of 0.384 OD.
B34 showed an optical density of 0.221 OD.
For B35, the optical density was 0.302 OD.
Work on B36 yielded an optical density of 0.275 OD.
Work on B37 yielded an optical density of 0.305 OD.
Binder B38 has an optical density of 0.287 OD.
B39 was tested, and the optical density was 0.641 OD.
In the case of B40, the optical density is reported as 0.305 OD.
For B41, the optical density was 0.407 OD.
Binder B42 has an optical density of 0.331 OD.
For B43, the optical density was 0.241 OD.
For B44, the optical density was 0.312 OD.
B45 showed an optical density of 0.355 OD.
B46 was tested, and the optical density was 0.414 OD.
Work on B47 yielded an optical density of 0.376 OD.
B48 was tested, and the optical density was 0.321 OD.
